Measured values reported in PMC11166264 (Cell reports, 2021).
Like-named read-outs stand apart in the source and are kept apart here. No end group written: not given here. *: point of attachment. Biotin = O=C1N[C@H]2[C@H](CS[C@H]2CCCCC(=O)*)N1

T1: HA-dmRanGAP (Drosophila melanogaster, UniProt Q9VIW3 1-596)
T1 sequence (looked up): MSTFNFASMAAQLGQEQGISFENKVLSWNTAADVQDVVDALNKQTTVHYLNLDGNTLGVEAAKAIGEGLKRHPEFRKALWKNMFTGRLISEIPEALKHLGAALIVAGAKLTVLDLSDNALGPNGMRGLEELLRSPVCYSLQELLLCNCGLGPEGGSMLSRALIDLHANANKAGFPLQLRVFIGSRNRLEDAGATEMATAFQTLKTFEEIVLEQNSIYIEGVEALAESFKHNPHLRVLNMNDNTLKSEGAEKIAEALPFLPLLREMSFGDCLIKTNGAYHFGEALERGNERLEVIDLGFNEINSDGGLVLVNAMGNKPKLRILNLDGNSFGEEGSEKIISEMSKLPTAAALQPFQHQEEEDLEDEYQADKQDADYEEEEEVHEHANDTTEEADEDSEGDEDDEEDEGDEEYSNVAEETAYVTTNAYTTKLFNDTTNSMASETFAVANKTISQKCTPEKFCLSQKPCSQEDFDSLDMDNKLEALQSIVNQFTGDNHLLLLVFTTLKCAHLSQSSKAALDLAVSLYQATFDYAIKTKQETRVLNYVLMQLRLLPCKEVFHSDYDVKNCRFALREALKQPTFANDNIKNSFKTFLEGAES

B1: dmRanBP2B-Frag (aa 2151-2250 of dmRanBP2B isoform) (domain or fragment, Drosophila melanogaster, UniProt A0A0B4K7J2 2151-2250, looked up)
chain: KPIEDSPVVGSVSQSTEANKPSQKNDGAAKSRGGESEVLDVGKTSSVRPTTHEVIPPLPMTLPLLTLPQPLAKPNDYQTPATILFKGSSLSRNNSSASEA

Key:
HA-dmRanGAP [1] = target: T1, HA-dmRanGAP; test: pull-down
HA-dmRanGAP [2] = target: T1, HA-dmRanGAP; test: pull-down; remark: listed apart in the source

Binder | binding result (HA-dmRanGAP [1]) | binding result (HA-dmRanGAP [2])
B1 | binds | 
Biotin-VRPTTHEVIPPLPMTLPLLTLPQ [Biotinylated BP2 peptide (aa 2197-2219 of dmRanBP2)] |  | binds
